# Test results from article PMC6277958, “Crystal structure of the Agrobacterium tumefaciens type VI effector–immunity complex” (Acta Crystallographica. Section F, Structural Biology …, 2018).
# B1: T6SS amidase immunity protein 4 (Tai4) from Agrobacterium tumefaciens, residues 26–129, expressed alone from pCold-GST (natural protein, UniProt A9CGG9 26-129, looked up)
# chain: AERTWIFSGAELKQAIEGKLAPDVSDPEMRRLVSVAKSSAYIAGVADLTSGSDWCGAGAVAPHELTDRIYTYLGDMPAEKLDEQAATLVREALKVSFPCEQKSN
# notes: codon-optimized synthetic gene; His6-GST tag removed with Turbo3C protease; Disulfide bond between Cys80 and Cys124 in each protomer; also called AtTai4; ATU4346; source: E. coli Rosetta 2 (DE3), purified (Ni-NTA, Resource Q, HiLoad Superdex 75); not shown: His6, N-terminal, cleaved; GST, N-terminal, cleaved
# Target: the molecule itself
# Assay: SEC; AtTai4 alone in solution; conditions not told (purification used a HiLoad Superdex 75 column)
protein,measurement,value
B1,stoichiometry N,2
